Measured values: patent publication US20210230264A1 (JIANGSU QYUNS THERAPEUTICS, published 2021)

B1: Ixekizumab (IXE) (antibody, V domains shown)
VH: QVQLVQSGAEVKKPGSSVKVSCKASGYSFTDYHIHWVRQAPGQGLEWMGVINPMYGTTDYNQRFKGRVTITADESTSTAYMELSSLRSEDTAVYYCARYDYFTGTGVYWGQGTLVTVSS
VL: DIVMTQTPLSLSVTPGQPASISCRSSRSLVHSRGNTYLHWYLQKPGQSPQLLIYKVSNRFIGVPDRFSGSGSGTDFTLKISRVEAEDVGVYYCSQSTHLPFTFGQGTKLEIKR
B2: anti-human interleukin 17A monoclonal antibody QX002N (antibody, human IgG1, kappa, V domains shown)
VH: EVQLQESGPGLVKPSETLSLTCTVSGIDLSLFYMSWIRQPPGKGLEWIGTIHEVASSYYASWAKGRVTISKDTSKNQFSLKLSSVTAADTAVYYCARETYSSRYPYPNIWGQGTLVTVSS
VL: DIQMTQSPSSVSASVGDRVTITCQASQNIGGSLAWYQQKPGKAPKLLIYGASSLASGVPSRFSGSGSGTDFTLTISSLQPEDFATYYCQSYNTISTYGLAFGGGTKVEIKR
notes: Claim 27 joins 7/8 with 10/11; Expressed in ExpiCHO-S cells and purified on Protein A; also called 37-5; humanized clone 37 #

How the values were obtained:
[1] = biological target: T1, human Interleukin-17A (hIL-17A) (human, UniProt Q16552 24-154); experiment: SPR, Biacore T200, 25 C, antibody captured on Protein A CM5 chip, hIL-17A in flow, 1:1 model, mean of two runs
T1 construct: also called hIL-17A standard
T1 sequence (Q16552 24-154): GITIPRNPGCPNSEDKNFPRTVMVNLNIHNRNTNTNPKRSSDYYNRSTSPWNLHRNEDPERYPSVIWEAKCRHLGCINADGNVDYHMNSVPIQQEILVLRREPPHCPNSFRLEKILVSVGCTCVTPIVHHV
Protocol: The Protein A was chemically coupled to the CM5 chip, and an appropriate amount of antibody was immobilized by the capture method, so that the Rmax was less than 50 RU, and the capture flow rate was 10 μl/min. The antigen was gradually diluted, and the flow rate of the instrument was switched to 30 μl/min. The diluted antigen was flowed through the reference channel and the channel of immobilized antibody in sequence from low to high concentration, and the running buffer was flowed through as a negative control. After each binding and dissociation was completed, the chip was regenerated with glycine, pH1.5. Fitting was performed with the build-in software in the instrument according to a 1:1 binding model. The association rate constant kₐ, the dissociation rate constant kd, and the equilibrium dissociation constant KD values of the antibody were calculated.

[2] = biological target: T1, human Interleukin-17A (hIL-17A); experiment: cell-based or functional assay

Binder | Kd [1] | koff [1] | kon [1] | IC50 (read off the curve) [2]
B1 | 0.0154 nM | 2.58e-05 s⁻¹ | 1.7e+06 M⁻¹ s⁻¹ | 
B2 | 0.00707 nM |  |  | ~20 ng/mL
